The subject of assay [1] is NK cells. As to the kind of experiment: Flow cytometry of NKG2A and PD-1 surface expression on NK cells. Type of assay: cell-based. The protocol:
(§1) PCa cells were plated at a density of 3×10^5 cells per well of a 6-well plate and adhered overnight. […] After treatment, cells were trypsinized, stained, and incubated (Cell Staining Buffer SouthernBiotech #0225-01S) with the corresponding antibody for 45-60 min at 4° C. Viability dye was added with each run. NK-92 cells and patient-derived cells were stained similarly. Markers used for experiments included: Thermofisher HLA-E Monoclonal Antibody (3D12HLA-E), Alexa Fluor™ 488, eBioscience™, CD274 (PD-L1, B7-H1) Monoclonal Antibody (MIH1), eFluor™ 450, eBioscience™, Cell Signaling PD-1 (D4W2J) XPR Rabbit mAb, SYTOX™ Orange Dead Cell Stain, for flow cytometry, BioLegend APC anti-human CD159a (NKG2A) Antibody #375108, BioLegend APC anti-human CD69 Antibody #310909, BioLegend Alexa Fluor® 647 anti-human CD137 (4-1BB) [4B4-1] #309823. For staining of the patient-derived PBMCs and subsequent NK cell characterization, the following antibodies were used: BioLegend Anti-Perforin Mouse Monoclonal Antibody (PerCP Cy5.50, clone: dG9) #308113, BioLegend Anti-Granzyme B Mouse Monoclonal Antibody (FITC, clone: GB11) #515403, BioLegend Anti-CD56 Mouse Monoclonal Antibody (Alexa Fluor® 700, clone: 5.1H1) #362521, and BioLegend (PE anti-human CD45 Antibody) #304008.
Methods: PCa cell lines (LNCaP, 22Rv1 [ARv7 mutation], DU145[AR-], PC3 [AR-]) were cocultured with NK-92 cells and treated with ARi (enzalutamide [enza] and darolutamide [daro]) or in combination with anti-NKG2A antibody monalizumab. Immune cell-mediated tumor cell killing assays and multiplexed cytokine profiling were performed. NKc expression of NKG2A and PCa cells expression of HLA-E were investigated by flow cytometry. The AR-negative cell lines (PC3 and DU145) were stably transduced with a functional AR pathway to evaluate the modulation of HLA-E by AR. The activation status of peripheral blood NKc isolated from patients with PCa before and post-initiation of androgen deprivation therapy (ADT) was investigated by flow cytometry.
On the technique in general: In flow cytometry, cells or beads pass a laser one at a time.

In assay [2] the test system is PC3 cell line. Briefly: Flow cytometry of HLA-E surface expression on AR-negative PC3. Type of assay: cell-based. Particulars: for surface expression of HLA-E: PC3, DHT 30 nM, vorinostat 0.3 μM, panobinostat 3 nM, 48 h.
Description: (§2) To evaluate the modulation of the androgen receptor and tumor HLA-E expression, we astably transduced AR negative cell lines PC3 and DU145 with an Androgen Response Element (ARE) GFP reporter (FIG. 16H). […] Using AR+ constructed cell lines, PC3 and DU145, we sought to determine the dependence of HLA-E expression and possible modulation by AR. […] Although potential therapies targeting immune enhancement are being explored, the expression of exhaustion markers such as PD-1, NKG2A, and potential engaging ligands that diminish their cytotoxic function limits their application. Exploring these factors with new combination approaches, such as ARi and anti-NKG2A, and understanding the modulation of its targets upon treatment is key in overcoming immune-resistant scenarios, especially in prostate cancer.
Experiments were conducted with noncytotoxic doses of vorinostat (0.3 μM) and panobinostat (3 nM).
as §1

In assay [3] the test system is DU145. As to the kind of experiment: Flow cytometry of HLA-E surface expression on non-AR-transduced DU145. It is filed as cell-based.
Description: as §2
PCa cells were plated at a density of 3×10^5 cells per well of a 6-well plate and adhered overnight. […] After treatment, cells were trypsinized, stained, and incubated (Cell Staining Buffer SouthernBiotech #0225-01S) with the corresponding antibody for 45-60 min at 4° C. Viability dye was added with each run. NK-92 cells and patient-derived cells were stained similarly. […]

In assay [4] the test system is LNCaP cells. Briefly: Flow cytometry of HLA-E / PD-L1 surface expression on LNCaP. Type of assay: cell-based. As to conditions: LNCaP, DHT 30 nM, vorinostat 0.3 μM, panobinostat 3 nM, 48 h. The protocol: The effect of ARi on the NKG2A ligand, HLA-E, was investigated by flow cytometry on PCa cells treated with enza and daro.
as §1
The effect of androgen pathway inhibitors in the expression of HLA-E, a negative and key negative modulator of NK cell function, was also performed using Flow Cytometry. PD-L1 expression levels were also measured. In advance, The NK cell immune checkpoint inhibitor monalizumab (targeting NKG2A and its ligand, HLA-E) was also combined with ARi.

The test system of assay [5] is PC3. As to the kind of experiment: Co-culture of GFP-expressing PC3 with patient-derived NK cells. Type of assay: cell-based, human. The source says: (§3) To validate an additive effect of ARi and monalizumab enhancing NK cell cytotoxicity, we performed a co-culture assay with GFP-labeled PCa cell lines (including ARi-sensitive LNCaP and ARi-resistant PC3) and patient-derived NK cells. The NK cells were negatively selected from whole blood from patients with metastatic prostate cancer before initiation of androgen deprivation therapy. The addition of enzalutamide or darolutamide enhanced the cytotoxicity of NK cells, and the combination of ARi with monalizumab potentiated immune killing (FIG. 15C-D).
(§4) Prostate cancer cell lines were dyed with the blue CMAC live-cell dye (Thermo Fisher Scientific #C2110, per manufacturer protocol). Blue-fluorescent cancer cells were plated at a density of 10,000 cells per well of a 48-well plate. NK-92 cells were dyed with green CMFDA (Cayman Chemical Company #19583, per manufacturer protocol). Green-fluorescent NK-92 cells were added to the blue-fluorescent cancer cells at a 1:1 ratio. Enzalutamide (10 μM), darolutamide (20 μM), and 1 μM ethidium homodimer (EthD-1) were added at the same time as the NK cells. After 24 hours of co-culture, images of live cancer cells, live NK cells, and dead cells were taken using a fluorescent microscope. The co-culture experiments were run with internal control conditions and as a single treatment. Normalization was performed after analysis to take baseline death conditions into each experiment run. To optimize the high output of these experiments, a subset of co-cultures were performed using the ImageXpress® Micro Confocal High-Content Imaging. This analysis maintained the experiment conditions, drug concentrations, and the dyeing process. When GFP-labeled tumor cells were used for culture assays, they were added in a 1:1 ratio. Cell adhered over 24 h, and when patient-derived NK cells were added, a control well was trypsinized, and cells resuspended and counted to adjust a 1:1 ratio before treatment addition. The experiments with blocking antibodies were performed using the ImageXpress system. TRAIL blocking ab was purchased from Santa Cruz TRAIL Antibody (RIK-2): sc-56246, and IFN gamma blocking Monoclonal Antibody (NIB42, #6-7318-81) was purchased from Thermo Fisher. The blocking mAb was added when NK cells were combined with tumor cells.
(§5) NK cells were isolated from patients harboring metastatic castration-sensitive prostate cancer using the MojoSort™ Human NK Cell Isolation Kit (#480053). Patients signed informed consent for IRB-approved research protocol number 2055-13, allowing the collection of peripheral blood samples. […] The untouched NK cells (CD56+, CD3−) were collected, and the purity of isolation was determined by flow cytometry using anti-CD56 (BioLegend 362503). […]

Assay [6] has as its system PC cell lines (LNCap, 22Rv1, DU145, PC3). Briefly: Co-cultures of PC cell lines with NK cells (1:1), immune-mediated PC killing. Type of assay: cell-based. The protocol:
as §4
Live cancer cells, NK cells, and dead cells were quantified using FIJI (Fiji Is Just ImageJ) software for images derived from fluorescent co-culture images. Images from the ImageXpress system were quantified using MetaXpress cytoplasmic/nuclear staining software. The percent of dead tumor cells in each well was quantified, and this percentage was normalized by subtracting baseline death from cancer cell-only wells, NK cell-only wells, or both. A two-way ANOVA was used to calculate the interaction effect between drug treatment and NK cells.
In groups with a significant interaction effect, data was further normalized in the cancer cell+NK cells+drug treatment well by subtracting out death in the cancer cell+drug well. A one-way ANOVA and multiple comparison analysis with subsequent t-tests were used to calculate the statistical significance of the difference between this group and the cancer cell+NK cell well. GraphPad Prism Version 9.5.1 was used for statistical analysis.
We conducted cell viability assays to investigate the effect of Enza and Daro on PC cells (LNCap, 22Rv1 [ARv7 mutation], DU145, PC3 [AR-]) and NK-92 cells. We performed co-culture experiments with PC and NK cells in a 1:1 ratio and analyzed immune cell-mediated tumor cell killing (ImageXpress Confocal HT). Cytokine profiling (Luminex 200) of culture supernatants was performed following treatment with ARi−/+ and anti-IFN-γ antibodies. In vivo studies were performed in NCr Nude mice harboring subcutaneous PC tumors treated orally with Daro (50 mg/kg/bid) and Enza (30 mg/kg/bid) for 4 weeks.
We performed ATP-based (CellTiter-Glo) viability assays to investigate the effect of Enzalutamide and Darolutamide on PC cell lines (LNCap, 22Rv1 [ARv7 mutation], DU145, PC3 [AR-]) and NK-92 cells. We performed co-culture experiments with PC and NK cells at a 1:1 ratio throughout 4 h, 6 h, 12 h, 24 h, and 48 h periods. We analyzed immune cell-mediated tumor cell killing in the presence of Enza and Darolutamide (ImageXpress Confocal HT). Western Blotting was performed to evaluate different protein expression levels and their regulation related to sensitivity in mediating immune-mediated cell killing (apoptotic family). […]

For assay [7], the system named is 22Rv1. Briefly: Co-culture of 22Rv1 with NK-92 cells, immune-mediated tumor cell killing. Type of assay: cell-based. As to conditions: 22Rv1 + NK-92 1:1, enzalutamide 10 μM, FIG. 15B. The protocol:
(§6) They were co-treated with enzalutamide ([…]) or darolutamide (20 μM) for 48 h. Doses of AR inhibitors (ARi) used in the co-culture experiments were based on previous IC50 experiments. […] The immune-mediated effect of NK-92 on the PCa cell lines in the presence of enzalutamide (immune enhancement death) was normalized to baseline immune and tumor cell killing in each condition [(tumor cells+immune cells)-tumor baseline death=baseline immune death]. […] Cytokine analysis was performed to investigate the activation phenotype of NK cells when treated with ARi.
(§7) Prostate cancer cell lines were dyed with the blue CMAC live-cell dye (Thermo Fisher Scientific #C2110, per manufacturer protocol). Blue-fluorescent cancer cells were plated at a density of 10,000 cells per well of a 48-well plate. NK-92 cells were dyed with green CMFDA (Cayman Chemical Company #19583, per manufacturer protocol). Green-fluorescent NK-92 cells were added to the blue-fluorescent cancer cells at a 1:1 ratio. Enzalutamide (10 μM), darolutamide (20 μM), and 1 μM ethidium homodimer (EthD-1) were added at the same time as the NK cells. After 24 hours of co-culture, images of live cancer cells, live NK cells, and dead cells were taken using a fluorescent microscope. The co-culture experiments were run with internal control conditions and as a single treatment. Normalization was performed after analysis to take baseline death conditions into each experiment run. […] Cell adhered over 24 h, and when patient-derived NK cells were added, a control well was trypsinized, and cells resuspended and counted to adjust a 1:1 ratio before treatment addition. […]
(§8) Live cancer cells, NK cells, and dead cells were quantified using FIJI (Fiji Is Just ImageJ) software for images derived from fluorescent co-culture images. Images from the ImageXpress system were quantified using MetaXpress cytoplasmic/nuclear staining software. The percent of dead tumor cells in each well was quantified, and this percentage was normalized by subtracting baseline death from cancer cell-only wells, NK cell-only wells, or both.

Assay [8] has as its system LNCaP. Briefly: Co-culture of LNCaP with NK-92 cells, immune-mediated tumor cell killing. Particulars: LNCaP + NK-92 1:1, enzalutamide 10 μM, FIG. 15A. It is filed as cell-based. How it is done:
as §6, §7, §8

The subject of assay [9] is LNCaP. As to the kind of experiment: Co-culture of GFP-expressing LNCaP with patient-derived NK cells. Type of assay: cell-based, human.
Description: as §3, §4, §5

Consider `C[C@]12CCC(=O)C[C@@H]1CC[C@@H]1[C@@H]2CC[C@]2(C)[C@@H](O)CC[C@@H]12` [DHT, dihydrotestosterone], for which the “surface expression of NKG2A” value in [1] was “reversed”. For the same molecule, the “surface expression of PD-1” value in [1] (MFI) is on record as “reversed”. In addition, the “surface expression of HLA-E” value in assay [2] is “did not alter”. Moreover, the HLA-E expression in assay [2] (non-AR-transduced PC3) is recorded as 11.28%; in assay [3], 1.84%.

Take `O=C(CCCCCCC(=O)Nc1ccccc1)NO` [vorinostat]: the “expression of HLA-E upon DHT treatment with HDACi” value in [4] is reported as “did not change significantly”. In assay [2], the “surface expression of HLA-E” value is reported as “did not change”.

B1: monalizumab (antibody, chains of the INN, looked up, V domains shown)
VH: QVQLVQSGAEVKKPGASVKVSCKASGYTFTSYWMNWVRQAPGQGLEWMGRIDPYDSETHYAQKLQGRVTMTTDTSTSTAYMELRSLRSDDTAVYYCARGGYDFDVGTLYWFFDVWGQGTTVTVSS
VL: DIQMTQSPSSLSASVGDRVTITCRASENIYSYLAWYQQKPGKAPKLLIYNAKTLAEGVPSRFSGSGSGTDFTLTISSLQPEDFATYYCQHHYGTPRTFGGGTKVEIK
For the molecule B1, the “killing of PCa cells by patient-derived NK cells (in words)” value in assay [5] (GFP PC3, 1:1, 24 h, monalizumab in combination with enza and daro) is “potentiated”; in assay [9] (GFP LNCaP, 1:1, 24 h, monalizumab in combination with enza and daro) it was “potentiated”. Moreover, the “median number of cells in co-culture” value in [5] (PC3 and NK cells, monalizumab added to darolutamide or enzalutamide, FIG. 3A) was “decreases”; in [9] (LNCaP and NK cells, monalizumab added to darolutamide or enzalutamide, FIG. 3B) it was “decreases”. In addition, the “immune-mediated NK cell killing of PCa cells (in words)” value in [6] (co-culture PCa + NK-92 cells) is “did not enhance”. In addition, the “ARi immune enhancement effect” value in [6] (co-cultures of PC cell lines and NK cells with Enzalutamide (API), [T] plus monalizumab) was determined as 43.92%. Further, the “NK cell killing of PCa cells (immune enhancement)” value in assay [7] was determined as 18.29%; in assay [8], 19.89%.

Values taken from US20240309090A1, “MODULATION OF ANDROGEN SIGNALING TO INNATE IMMUNE KILLING OF PROSTATE CANCER” (Brown University, priority 2023, published 2024).
